We go through 17 sequences from the DeepSol protein solubility set.

The nature of the data set: soluble on expression in E. coli; label from the status in PepcDB or PDB records.
Turning to “MCVSSAVCVLSRLSLERFSNFSANFVDNFLLVARFARGETLKNGIVLEISKICPKLYISPVPKLFDCSTDNLLFIYILFASKVRMKEMSTPTGLPALNGDVLSAINDMIGRVIIINTTDKKRYSGVLGAVSQDFDFGMQCVVEITKENENNLLRTESECRDKMVFHYSDIVDFAYVTQEIKKQHAVSKFVTDRQYHGDTPIEGEELQEWNGGEEDGLGGSIEDDVVVAGGQTAARRSNNHNNGTGWSVNDMFAANEKMNVVSTFKEDLTQYTTVEVVGTDEDRARAERLAREIESNSSSKFMANLENDDDERDLDKITRQEDFENGNGRKRNNNSFNQQQQQRRNPNIAPNGQPVNRRAEGLRGDRRNSGSSSANNSRYGAPAAAQQNYSQNQQQQQGQKGYRRQNEENDWQMAKGKGQNQGHDHSFRQQQKQMLDPRPNNNVKPADDKAQSATTATAAAGGSRVTDLKNWGNEFSIATAPKDQAPAVPAGNSGSAWNRGPPSSLVAKGSSNESTPPPTTNGEEAETKKEEAPSTSVDVAAAPVQNVQNDAEKHQEDDNVSVTSENDSVITSKSSSFKFNINAPEFKPRVAPATPTATTPVQNEYHPQQQPHPAMMAPQQGPPAPGMGMVPPHMGGPQNQGQPPMMMWQQTGQQQQGGGGYPQNHQFPIQHVPMQGVPGQMYGPGAATPVTVAQQPNQQHQVPTSAAGGQNHQLRDGEYREKQPLYMPYGPPQMVPVTSQQFYHSQYQGQMQQAAPYQMKMMPQQAPQGAYQQRYQQPQVYMMPPQGQQQQPRYQGPPPPQQQQQQQPQQQQFSGEQSRPQSHPNSQPTTPGPRGELPKMSGAPQNGNMQAESSSNASHSGSTSSQSGQRSGSPPGAVPPPPPPQQQHQQQQHPPHHAPPHVGAPPPQMMQQQQQHIQQYMQVFYPMIMPQQMPMQQNQHPQQSLMGERSDQGFPTSGYFDYRTMPNYQQQQQQQQQQMHRQNSLPQQFQGNQGVNPSGQQSGPPPPPPPSQQGTPRDQQHSQSPP”, the “soluble on expression in E. coli” value was “not soluble”.
Under “LAKGLEDVYIDQTNICYIDGKEGKLYYRGYSVEELAELSTFEEVVYLLWWGKLPSLSELENFKKELAKSRGLPKEVIEIMEALPKNTHPMGALRTIISYLGNIDDSGDIPVTPEEVYRIGISVTAKIPTIVANWYRIKNGLEYVPPKEKLSHAANFLYMLHGEEPPKEWEKAMDVALILYAEHEINASTLAVMTVGSTLSDYYSAILAGIGALKGPIHGGAVEEAIKQFMEIGSPEKVEEWFFKALQQKRKIMGAGHRVYKTYDPRARIFKKYASKLGDKKLFEIAERLERLVEEYLSKKGISINVDYWSGLVFYGMKIPIELYTTIFAMGRIAGWTAHLAEYVSHNRIIRPRLQYVGEIGKKYLPIELRR” stands “soluble”; under “MSKLASPQSVRALLERHGLFADKRFGQNFLVSEAHLRRIVEAARPFTGPVFEVGPGLGALTRALLEAGAEVTAIEKDLRLRPVLEETLSGLPVRLVFQDALLYPWEEVPQGSLLVANLPYHIATPLVTRLLKTGRFARLVFLVQKEVAERMTARPKTPAYGVLTLRVAHHAVAERLFDLPPGAFFPPPKVWSSLVRLTPTGALDDPGLFRLVEAAFGKRRKTLLNALAAAGYPKARVEEALRALGLPPRVRAEELDLEAFRRLREGLEGAV”, “soluble”.
As to “MGSDKIHHHHHHMTTDSSNNRTISSKSTLSSKSIINVGPFTPHIEFIGQQQTPVIIIDDFGADLSQLIDIAIDDSQFNQDQGSYYPGQRAPLPKQYVIDVINAVYQLIYDTYKVPHSLRLKPQQCVFSVIDKPAQRLLPLQCMPHFDTPDPHYFAILHYLNNGDHGDTGFFRHNTTQYEQISPHNIDHYFNQAQPVVDAQQTLMPDYVVDSNDHYTLYHQVHYRPNRLVIYPGNLLHSTLVNPVTDIDSSPKTGRLTANIFINFK”, the “soluble on expression in E. coli” value is recorded as “not soluble”.
For “LKVREDENNPFYFRSSNSFQTLFENQNGRIRLLQRFNKRSPQLENLRDYRIVQFQSKPNTILLPHHADADFLLFVLSGRAILTLVNNDDRDSYNLHPGDAQRIPAGTTYYLVNPHDHQNLKMIWLAIPVNKPGRYDDFFLSSTQAQQSYLQGFSHNILETSFHSEFEEINRVLFGEEEEQRQQEGVIVELSKEQIRQLSRRAKSSSRKTISSEDEPFNLRSRNPIYSNNFGKFFEITPEKNPQLRDLDIFLSSVDINEGALLLPHFNSKAIVILVINEGDANIELVGIKEQQQKQKQEEEPLEVQRYRAELSEDDVFVIPAAYPFVVNATSNLNFLAFGINAENNQRNFLAGEKDNVVRQIERQVQELAFPGSAQDVERLLKKQRESYFVDAQPQQKEEGSKGRKGPFPSILGALY” the value was “soluble”; for “MMKKYLISLAKDQQRREQFFTQADTADFQVFDAVNTMQQEWDSLAVKYDITQFAQRYQRSVTKGEIGCTLSHLGVYQWIVADPQIGDNDYCLVCEDDALFNQDVQSSLTQLLSQNVHADIVLVGQSKIFGFDDAMLEIEYPTTFAPQMVAIGNSIYRYAYPYKNYYAGTVAYLIKKSTARKLVSITDLPFWLADDFILFEQQFGLDIMVVRPLMAIENPALCSNLETARASTQQALSKKLLKYPFKKWLAIQRNIGLKNDQCGNLEHHHHHH”, “not soluble”; for “MGSDKIHHHHHHMFLDDFHTVTDDRLCITAEQASRFAKCIAGDYNPIHDPDARRFCVPGDLLFALVMARFGLAQRMTFHFKGMVGDSVPLCFAQHGDTVSVTDHHGKVYLEVERGGDITHDAGVIEAFTRRYVAFSGRNFPHYLKPLMEEQGVMFNPQRPLVIYDSMGFSLSRLDVAEAGVAFTGATLDVTGKRGDALLQFQMTDADTVIGHGSKKLVVSGLREYDPPVMDAFVEQFMSLKAHSATTG”, “not soluble”.
For “MPKPYIAINMADLKNEPKTFEMFSAVGPKVCMVTARHPGFVGFQNHVQIGVLPFGERFGGAKMDMTKESSTVRVLQYTMWKDWKDHEEMHRQNWSYLFRLCYSCASQMVWGPWEPIYEIKYADMPINTEMTDFTAVVGKKFAEGKPLEIPVISQPYGKRVVAFGEHTVIPGKEEQFEDAIIKTLEMFKRAPGFLGAMLLKEIGVSGIGSFQFGSKGFHQLLESPGSLEPDPNNVMYQAPEAKPTPPQYIVHVEWANLDALQFGMGRVLLSPEYREVHDEALDTLIYGPYIRIINPVMEGTFWREYLNE” the value was “soluble”; for “MAKKNNKTKIQKPEAALQTDVAQITATGRVIAEHPSNFITPQKMRALFEDAESGDIRAQHELFADIEERDSDIAANMGTRKRALLTLNWRVAPPRNATPEEEKLSDQAYEMMDSLPTLEDLIMDLMDAVGHGFSALEVEWVFSDGLYLPRNFIHRPQSWFKWDKDNGLLLRTRENPEGEALWPLGWVVHTQKSRSVQQARNGLFRTLSWLYMFKHYAVHDFAEFLELYGMPIRIGKYGAGATKEEKNTLLRAVAEIGHNAAGIMPEGMEIELHNAANGTTATSNPFLQMADWCEKSAARLILGQTLTSGADGKSSTNALGNIHNEVRRDLLVSDAKQVAQTITSQIIGPFLQINYPHADPNRVPKFEFDTREPKDIAVFADAIPKLVDVGVQIPESWVRDKLVIPDVQEGEAVLVRQVPDNPVNRTALAALSAHTVPSKATGRHQEILDGALDDALVEPDFNSQLNPMVRQAVAALNACNSYEEADAALNALYPNLDNAKLRTYMQQALFISDILGQDHARA”, “not soluble”.
Under “MVEGKVTLRLRYTKTGAMRFLSHLEMIGLFTRAVGRSRIPIRFSRGFHPHPKFSFATALSVGVESWAEYLDMELFPGADPTDIGTRLNGALPEGVRIVEASVIPPGSPSLSVIMDKVRYRVTLPPEAAVGLPELAAAFLARESVPLRREKKGRVLEHHHHHH” stands “soluble”.
For the sequence “MAHHHHHHMPIIESDLLSLAYKAALSALLSEEIYNFGKFLNERHFTERLADSVQHAWILEWLRLCNDGKVEEFEQYAVAHKAEMAASPILSESFPSITKKVRLMALLHLVFYTPFNERTFTFDVIARRCAVDEERVEPLLLAALAQGIIMGKIDGLTQEVHITWVEPRVLSLQEVKELAVHVSRWKEKTLGLMQCMKEAAQETHN”, the “soluble on expression in E. coli” value is “not soluble”.
For “GPGSMACLSRIDANLLQYYEKPEPNNTVDLYVSNNSNNNGLKEGDKSISTPVPQPYGSEYSNCLLLSNSEYICYHFSSRSTLLTFYPLSDAYHGKTINIHLPNASMNQRYTLTIQEVEQQLLVNVILKDGSFLTLQLPLSFLFSSANTLNGEWFHLQNPYDFTVRVPHFLFYVSPQFSVVFLEDGGLLGLKKVDGVHYEPLLFNDNSYLKSLTRFFSRSSKSDYDSVISCKLFHERYLIVLTQNCHLKIWDLTSFTLIQDYDMVSQSDSDPSHFRKVEAVGEYLSLYNNTLVTLLPLENGLFQMGTLLVDSSGILTYTFQNNIPTNLSASAIWSIVDLVLTRPLELNVEASYLNLIVLWKSGTASKLQILNVNDESFKNYEWIESVNKSLVDLQSEHDLDIVTKTGDVERGFCNLKSRYGTQIFERAQQILSENKIIMAHNEDEEYLANLETILRDVKTAFNEASSITLYGDEIILVNCFQPYNHSLYKLNTTVENWFYNMHSETDGSELFKYLRTLNGFASTLSNDVLRSISKKFLDIITGELPDSMTTVEKFTDIFKNCLENQFEITNLKILFDELNSFDIPVVLNDLINNQMKPGIFWKKDFISAIKFDGFTSIISLESLHQLLSIHYRITLQVLLTFVLFDLDTEIFGQHISTLLDLHYKQFLLLNLYRQDKCLLAEVLLKDSSEFSFGVKFFNYGQLIAYIDSLNSNVYNASITENSFFMTFFRSYIIENTSHKNIRFFLENVECPFYLRHNEVQE” the value was “soluble”; for “MSHFTQLKTKLTNRDCLVQALEDLKLQPHVFEQPQPLAGYYMDSQGYSAEIIIFGRTIKARADIGFRWNQSSGVYEVIHDEYETSPRLGEDFFSHKLMQTYGRRMVLAKTEELREKFGECTISEETKGQVQTLRLTFAGHQEVKQYARRLEHHHHHH”, “not soluble”.
For “DKIIMDPHAVLGPVDPQLGQYPAPSIVRAVEKKGVDKVDDQTLILADVAEKAIRQVRDFIFNLLKDKYGEEKAKELAQVLTEGRWTHDYPITVEEAKKLGLNVSTDVPEEVYALMELYKQPIRQRGTVEFVPYPMKQEGK” the value was “not soluble”.
Under “MGSDKIHHHHHHMRGEQSPNGLHYAREHLSCKNYMTDIDTGFKYIKFDTEKCIEEEYTHKNYLLFFLEGDFSVYCNQFCNRTFHSNEMVVLPKSSMIKISATDKSQMLAMAFDIPQSNCDKLLFQGLSSICENIDYDFSPIPMRYPLMPFLETVVHCLRNEMNCTYLHNVIEREFFFLLRGFYNKKEIATLFHPIIGRQLEFRDFVMQNYSKVNNLDELITLSNIGRTSFFIKFKEEFGITAKQWMMKQLKKRILGKVIEPGICVKQLMEVCNFESQAQLYRYFKQHFRCTPKQLIDRYQAKTDNL” stands “not soluble”.
For “MNPTTLADVDTVIINANILTLDRDCPHAQAIAFAAGRILALGTTQELSPLAGRAATVVDARGSTLLPGFIDSHSHLMFGGVVAQALDLTEAACLSDLLDMVRSRAQSTPEGEWIRGYGVAAGRLKEKRYPTRQELDQVSGGRPVWLAEDSFHASLVNSKAFRMLEIPLSTPGVELAADGSPTGAFLNDAANVPARQRVFGFISDDEARQMLQHVTQLGATRGVTTVHAFEGSRMSADRDIELLMRFRHELPIHVVPYYETFDVERAMQLGVSGVGGCGRNCLDGMPNIQTAAMVDPYCCSEERGSLFQESIKLHNFVIAAFERGMQVGMHAMGDAAIEQLLATYERAIEETGRTDLRPRIEHFHVPSRDHVRRAADLGVGLAVQPIFTHLWGGRDGIFFERLGERRYKRIDTYREILDSGAIASCGADLPVHPADPLRWIQLLVDNQIDRDQSVSMTEAIRMCTYNGAWLGFQESETGTLAVSKAADAVMLGRDPHQCMPHEIAAIPILKTLGGKLVFESSRPLEHHHHHH”, the “soluble on expression in E. coli” value is “not soluble”.
For “MGSDKIHHHHHHMALLTAETFRLQFNNKRRLRRPYYPRKALLCYQLTPQNGSTPTRGYFENKKKCHAEICFINEIKSMGLDETQCYQVTCYLTWSPCSSCAWELVDFIKAHDHLNLGIFASRLYYHWCKPQQKGLRLLCGSQVPVEVMGFPEFADCWENFVDHEKPLSFNPYKMLEELDKNSRAIKRRLERIKS” the value was “not soluble”.
